From US20230167482A1, “FUNCTIONAL CYTOCHROME P450 IN VITRO ASSAY” (PharmGenetix GmbH, priority 2019, published 2023) come the findings set out here.

The series concerns CYP2D6. Description: Functional CYP2D6 in vitro assay: HEK-Blue cells transiently transfected with a CYP2D6 variant, P450-Glo luminescence with Luciferin-ME EGE, normalized to secreted NanoLuc. The class given is cell-based, human. The conditions noted are these: one-way ANOVA followed by Dunnett post hoc test, categories: loss, decrease, normal, increase of function. How it is done:
Therefore the CYP2D6 coding sequence (CDS) of interest is cloned into pcDNA3.1-HISC vector, and variants of interest are produced via site-directed mutagenesis (FIG. 1; step 1).
pcDNA3.1-HISC (A) and pNL1.3CMV[secNluc/CMV] (B) vectors are co-transfected in HEK-Blue™ cells (FIG. 1; step 2). 48 hours after transfection, secreted NanoLuc is detected and measured by luminescence using a multi-plate reader (FIG. 1; step 3). Following NanoLuc detection, old media is replaced with Luciferin ME-EGE containing media (FIG. 1; step 4). After 3 hours incubation at 37° C., cells are lysed and luciferin production (proportional to CYP2D6 activity) is measured using a multi-plate reader (FIG. 1; step 5).
CYP2D6 cDNA was obtained from total liver RNA (Ambion®, Life Technology, Wien, Austria), following Reverse-Transcription-PCR (RT-PCR) using the Quantitect® Reverse Transcription kit (Qiagen, Hilden, Germany) following manufacturer instructions. The CYP2D6 coding sequence (CDS) was then amplified using the following oligonucleotide primers: 5′-[…]-3′ (forward primer) and 5′-[…]-3′ (reverse primer). The CYP2D6 CDS was then cloned into the pcDNA3.1-HISC eukaryotic protein expression vector under the control of the CMV immediate enhancer and promoter, using the NheI and KpnI restriction digestion enzymes (Thermo Scientific, Waltham, Mass., USA). […] All the other tested CYP2D6 variants were similarly created. After production, vectors and cloned inserts were verified with Sanger sequencing against the wild-type reference sequence (SEQ ID No: 2).
Cell culture and transfection Human Embryonic Kidney (HEK)-Blue (HEK-Blue™ IL-4/IL-13 cells, Invivogen, Toulouse, France) cells, an engineered cell line derived from HEK-293 cells, were cultured in a humidified incubator at 37° C. with 5% CO2 with Dulbecco's Modified Eagles Medium (DMEM) supplemented with 4.5 g/L glucose, 10% (v/v) Fetal Bovine Serum (FBS), 1.5% NaHCO3, 50 U/mL penicillin, 50 μg/mL streptomycin, 10 μg/mL Blasticidin and 100 μg/mL Zeocin™ (Invivogen, Toulouse, France). Media was replaced three times weekly. […]
Forty-eight hours following transfection, a 20 μL aliquot of the supernatant was transferred from each well into a new white 96-well Nunclon™ A Surface plate for the detection of the secreted NanoLuc® levels using the Nano-Glo® Luciferase assay (Promega, Mannheim, Germany). […] Following three minutes incubation at room temperature (RT), luminescence was measured using the Spark® 10M multimode multiplate reader (Tecan, Grodig, Austria), keeping an optical density filter of 1 (OD1) and 1 second of integration time. Luminescence levels directly correspond to the amount of secreted NanoLuc®, which is used for normalization of transfection efficiency. […]

B1: *9: human CYP2D6 variant allele *9 (PV00434), SEQ ID NO: 5 (protein, UniProt P10635 1-497, looked up, variant K281*)
Cytochrome P450 2D6: MGLEALVPLAVIVAIFLLLVDLMHRRQRWAARYPPGPLPLPGLGNLLHVDFQNTPYCFDQLRRRFGDVFSLQLAWTPVVVLNGLAAVREALVTHGEDTADRPPVPITQILGFGPRSQGVFLARYGPAWREQRRFSVSTLRNLGLGKKSLEQWVTEEAACLCAAFANHSGRPFRPNGLLDKAVSNVIASLTCGRRFEYDDPRFLRLLDLAQEGLKEESGFLREVLNAVPVLLHIPALAGKVLRFQKAFLTQLDELLTEHRMTWDPAQPPRDLTEAFLAEMEAKGNPESSFNDENLRIVVADLFSAGMVTTSTTLAWGLLLMILHPDVQRRVQQEIDDVIGQVRRPEMGDQAHMPYTTAVIHEVQRFGDIVPLGVTHMTSRDIEVQGFRIPKGTTLITNLSSVLKDEAVWEKPFRFHPEHFLDAQGHFVKPEAFLPFSAGRRACLGEPLARMELFLFFTSLLQHFSFSVPTGQPRPSHHGVFAFLVSPSPYELCAVPR
With B1, the “function category of the variant versus *1 and *3 controls” value is “decrease of function”.

B2: *10: human CYP2D6 variant allele *10 (PV00435), SEQ ID NO: 6 (protein, UniProt P10635 1-497, looked up, variant P34S S486T)
Cytochrome P450 2D6: MGLEALVPLAVIVAIFLLLVDLMHRRQRWAARYSPGPLPLPGLGNLLHVDFQNTPYCFDQLRRRFGDVFSLQLAWTPVVVLNGLAAVREALVTHGEDTADRPPVPITQILGFGPRSQGVFLARYGPAWREQRRFSVSTLRNLGLGKKSLEQWVTEEAACLCAAFANHSGRPFRPNGLLDKAVSNVIASLTCGRRFEYDDPRFLRLLDLAQEGLKEESGFLREVLNAVPVLLHIPALAGKVLRFQKAFLTQLDELLTEHRMTWDPAQPPRDLTEAFLAEMEKAKGNPESSFNDENLRIVVADLFSAGMVTTSTTLAWGLLLMILHPDVQRRVQQEIDDVIGQVRRPEMGDQAHMPYTTAVIHEVQRFGDIVPLGVTHMTSRDIEVQGFRIPKGTTLITNLSSVLKDEAVWEKPFRFHPEHFLDAQGHFVKPEAFLPFSAGRRACLGEPLARMELFLFFTSLLQHFSFSVPTGQPRPSHHGVFAFLVTPSPYELCAVPR
Turning to B2, the “function category of the variant versus *1 and *3 controls” value is “decrease of function”.

B3: *29: human CYP2D6 variant allele *29 (PV00453), SEQ ID NO: 8 (protein, UniProt P10635 1-497, looked up, variant V136I R296C V338M S486T)
Cytochrome P450 2D6: MGLEALVPLAVIVAIFLLLVDLMHRRQRWAARYPPGPLPLPGLGNLLHVDFQNTPYCFDQLRRRFGDVFSLQLAWTPVVVLNGLAAVREALVTHGEDTADRPPVPITQILGFGPRSQGVFLARYGPAWREQRRFSISTLRNLGLGKKSLEQWVTEEAACLCAAFANHSGRPFRPNGLLDKAVSNVIASLTCGRRFEYDDPRFLRLLDLAQEGLKEESGFLREVLNAVPVLLHIPALAGKVLRFQKAFLTQLDELLTEHRMTWDPAQPPRDLTEAFLAEMEKAKGNPESSFNDENLCIVVADLFSAGMVTTSTTLAWGLLLMILHPDVQRRVQQEIDDMIGQVRRPEMGDQAHMPYTTAVIHEVQRFGDIVPLGVTHMTSRDIEVQGFRIPKGTTLITNLSSVLKDEAVWEKPFRFHPEHFLDAQGHFVKPEAFLPFSAGRRACLGEPLARMELFLFFTSLLQHFSFSVPTGQPRPSHHGVFAFLVTPSPYELCAVPR
In the case of B3, the “function category of the variant versus *1 and *3 controls” value is listed as “decrease of function”.

B4: *14: human CYP2D6 variant allele *14 (PV00439), SEQ ID NO: 7 (protein, UniProt P10635 1-497, looked up, variant P34S G169R R296C S486T)
Cytochrome P450 2D6: MGLEALVPLAVIVAIFLLLVDLMHRRQRWAARYSPGPLPLPGLGNLLHVDFQNTPYCFDQLRRRFGDVFSLQLAWTPVVVLNGLAAVREALVTHGEDTADRPPVPITQILGFGPRSQGVFLARYGPAWREQRRFSVSTLRNLGLGKKSLEQWVTEEAACLCAAFANHSRRPFRPNGLLDKAVSNVIASLTCGRRFEYDDPRFLRLLDLAQEGLKEESGFLREVLNAVPVLLHIPALAGKVLRFQKAFLTQLDELLTEHRMTWDPAQPPRDLTEAFLAEMEKAKGNPESSFNDENLCIVVADLFSAGMVTTSTTLAWGLLLMILHPDVQRRVQQEIDDVIGQVRRPEMGDQAHMPYTTAVIHEVQRFGDIVPLGVTHMTSRDIEVQGFRIPKGTTLITNLSSVLKDEAVWEKPFRFHPEHFLDAQGHFVKPEAFLPFSAGRRACLGEPLARMELFLFFTSLLQHFSFSVPTGQPRPSHHGVFAFLVTPSPYELCAVPR
As to B4, the “function category of the variant versus *1 and *3 controls” value is on record as “decrease of function”.
